doi:10.1101/2024.09.06.611644 (bioRxiv, 2024)

Target: wild-type AC fused to GFP (AC-GFP) (GFP moiety: Aequorea victoria …, UniProt P42212 = GFP)
Assay: two-hybrid

B1: CaM-V9A fusion expressed from pK1Cam-V9A or pK2Cam-V9A (VHH)
VHH: DVQLQESGGGSVQAGGSLRLSCAASGDTFSSYSMAWFRQAPGKECELVSNILRDGTTTYAGSVKGRFTISRDDAKNTVYLQMVNLKSEDTARYYCAADSGTQLGYVGAVGLSCLDYVMDYWGKGTQVTVSS
binding result: binds
